Measured values reported in article PMC7055914.

Target: S. Typhi PltB (pertussis-like toxin B subunit) homopentamer (Salmonella enterica serovar Typhi) (UniProt Q8Z6A3)
Assay: […], sodium acetate pH 4.4) […]

Substance: S. Typhi PltB (pertussis-like toxin B subunit) homopentamer (from UniProt Q8Z6A3) (natural protein)
- stoichiometry N: 5
